Results as given in the DeepSol protein solubility set.

Test: soluble on expression in E. coli; label from the status in PepcDB or PDB records
In the case of “MSLRLERLNYNKIKIFLTLDDLTDRGLTKEDLWKDSFKVHQLFKDMMNEANTELGFEANGPIAVEVYSLQAQGMVVIVTKNQDADSEDDEYDDDYIEMQVKLDESADIIYQFHSFEDIIQLSESLQRIGITGGTVYHYDGQYFLSLEDLGSHTAEGVVAVLAEYGNPTTLTIYRLQEYGKLIMDGNAVETIQTHFSEGHHHHHH”, the “soluble on expression in E. coli” value is reported as “soluble”. With “MRSMNTHAVLQFLSGNGIAILQFFHQLILQGKTQDDLTRDYALDRAWVGSVMKLAKELFDPRPSPSRDECISVAKELGLGIEVLKAINPALGRLNKKASMTKDDLRLRLYREARGMTPAEAKAHANTRVVALNDACGATPRKPAVRISKSTDAAGQRHIHASLDDATASAVAEKLHAGARWLTKKTPSLSYSQAMAEIFAIAILDSPALGGRKRREGLILLPADGYTHRGNGMLATTDGSLIPAHKLAEHLLEEYGYAMLYALNDEGVPEPVDLYRTKRYANDKQRLMITADQLTCSHPDCHRLANNSHIHHCTAWERGGETNVKNLVAACATHNRRNDDDPERHKNGYFRRMPHSGCAGFQPADPSLPPRRTRVPFAAYSARVWACDHFGVTV” the “soluble on expression in E. coli” value was “not soluble”. With “GPGSMPTAKVTEKEAACVTALKGEYPASKADPADAGFLSDSTYLRFARAHDGNVKKASELLGATLRWRKQTKPYAITMEEVQNAMKQTTMYCGGRCNIGCPVIAMVPGMQNDCTVEERTKQLVYIMEETHRKGYERITWIIDFGAMGSHRDERSKEARKETMKILQDYYPERMARILLYRTPWYIRMLLGAAKMFMDARTAAKVYNAGRTIEALEKFVDRDQVPPVCGGTMKGSALSHLEELPSLNSE” the “soluble on expression in E. coli” value was “not soluble”. With “GPGSMNERLEDIALTLVGAGKGILAADESTATIGKRFESIGVECTEDNRRAYREMLFTAKEAMESAISGVILFDETLRQKASTGQMLTDLIRDAGAVPGIKVDTGAKPLAAFPQETITEGLDGLRERLKDYYTLGARFAKWRAVIAIDAQTLPTRGAISQNAQALARYAALCQEAGLVPIVEPEVLMDGPSRQHSITRCFEVTKVVLHTVFKELFEARVLFEGMILKPNMVIDGKDARIASVEEVAEKTVHVLKQTVPAAVPGIAFLSGGQTDEEATAHLSAMNALGALPWKLTFSYGRALQAAALKAWAGKNENIVVAQKAFCHRARMNHLAALGQWTKDQEKSCA” the “soluble on expression in E. coli” value was “soluble”. With “MSLREAMSKQAMLDAIEAEREVLIGFLQEFVRAASPNPPGDTRAAAAVIQGFLSARGVPNELLGPQESMPNVVSECEGGRAGPRLVYNGHMDVFPVGDGHGWTRDPWSGDIEEGRLHGRGTCDMKTGTAASVIAYAYLYARRAQLAGSVALTAVSDEETGGRWGTRWLLENDTRWRGDCVLNGEPSSLDTIRFSEKGTLRLKFEVLAAGAHGAYVHRSESPTRIAAALIGRLAEVEAIEPSLPAALKAHLQREDVRRALDVAMGEGAADVVTRTTLNVGVLNGGLKINMIPDRCVFEVDIRLPVGTEPDVVLARLEGILAEFPQASMEVQQWHSTPPNVCAHDHPMVDFIADNAQAIVGRRPVAVPSIGSTDCRYWRRSGVPAYVYGPAPGRMAMSNESVDLDEFIAVAKVHAAAGWDYLNGAAEGHHHHHH” the “soluble on expression in E. coli” value was “soluble”. With “MGSDKIHHHHHHMPINSFENYPMTWKPKLDNRKPPIYKTLAMLLEEDIKRGNLNPGDKLPPQRELADFLDLNLSTITRAFKLCEEKGLICAKVGKGTFISSDVNVSNTLLYQTESKDIIELGTVHPPYEQNTYIIDFIKNVLKQPEMDRFLQYMSPSGTYMQKKSIAKWIERNNVYTSEENILLSTGGQNAICATLLGLFKAGDRIATDSLSFSGIKSIAKMIGIQLVPIPQENNEISIEYLESYCKNENIKGIYLIPDYHNPTTHTMSDLSRKKIAKIAKQYNIIIIEDAINSIFRDGIQTPIFSLASDNTIYIFSTSKFLCAGLRVAFVVAPKRYIENLENALYNMNLMVSPFTAEIVHRLLYSPIIDKIIEEKRDAIIERNEVADKVLSDYNLIGDKNCSFRWLLLPDELDGKSFEISAKNLGVQVYCAERFSVGNSTVPKAVRICVTAPKDVEELEKGLNIIKSLLKS” the “soluble on expression in E. coli” value was “not soluble”. For “MFELVDNIAQTAVIKVIGVGGGGGNAVNHMAKNNVEGVEFICANTDAQALKNIAARTVLQLGPGVTKGLGAGANPEVGRQAALEDRERISEVLEGADMVFITTGMGGGTGTGAAPIIAEVAKEMGILTVAVVTRPFPFEGRKRMQIADEGIRALAESVDSLITIPNEKLLTILGKDASLLAAFAKADDVLAGAVRGISDIIKRPGMINVDFADVKTVMSEMGMAMMGTGCASGPNRAREATEAAIRNPLLEDVNLQGARGILVNITAGPDLSLGEYSDVGNIIEQFASEHATVKVGTVIDADMRDELHVTVVATGLGARLEKPVKVVDNTVQGSAAQAAAPAQREQQSVNYRDLDRPTVMRNQSHGSAATAAKLNPQDDLDYLDIPAFLRRQAD”, the “soluble on expression in E. coli” value was “soluble”. For “GPGSMPNPYTGNYEAARFVEYYASAQMLRDSVHRLHTVSIQRHMDALRRAESAHQKHTCPAAPIRSRQQIEEHANRMVYQEMLRRQKNMTKLAWDVYKPVPPKRLSSEELRSLVKRMYEQQMQNMTERKKEARQRQVVLSDEVLAETRRGRRMLRQRDIHRSLESGWRTPSSRAKYNDGKLLLVSGGNVKSTSKERPPDLGYLARLAKPLRPTERVNKC”, the “soluble on expression in E. coli” value was “not soluble”. In the case of “MTLELLQAQAQNCTACRLMEGRTRVVFGEGNPDAKLMIVGEGPGEEEDKTGRPFVGKAGQLLNRILEAAGIPREEVYITNIVKCRPPQNRAPLPDEAKICTDKWLLKQIELIAPQIIVPLGAVAAEFFLGEKVSITKVRGKWYEWHGIKVFPMFHPAYLLRNPSRAPGSPKHLTWLDIQEVKRALDALPPKERRPVKAVSQEPLF”, the “soluble on expression in E. coli” value is reported as “soluble”. With “MGHHHHHHSHDFIPRGAFGKVYLAQDIKTKKRMACKLIPVDQFKPSDVEIQACFRHENIAELYGAVLWGETVHLFMEAGEGGSVLEKLESCGPMREFEIIWVTKHVLKGLDFLHSKKVIHH” the “soluble on expression in E. coli” value was “not soluble”. In the case of “MGSDKIHHHHHHADILNCILPAEMLTGTDIDYNRPYDKSLNAYPIYIEVNNGTDLTRLAPTFELTEGASIEPANGSTQNFTNPVRYTVTSEDKNWHRTYAINIHYPETKSIPTVFNFENVKTVPYNKNEYYVLYEAASGYSTLTWSSGNQGFALTGSGYTPNDFPTSISPNGRTGNCLQLITRKTGSLGTLVGMPIAAGNLFIGSFDIGSAMSDALSATKFGTTFYYEPIKLVGYYKYKAGPEFYENGESTNRKDVFNIYALFYEKTKDVQMLDGHIAKNNYEHENMVAAAVITDTHETSEWTRFELDFNYEHYGKTIDPQKLANGGYNVSIVLSASKDGDVFQGAPGSTLLIDDLELVCKQPLR”, the “soluble on expression in E. coli” value is reported as “not soluble”. In the case of “MGNTSSERAALERHGGHKTPRRDSSGGTKDGDRPKILMDSPEDADLFHSEEIKAPEKEEFLAWQHDLEVNDKAPAQARPTVFRWTGGGKEVYLSGSFNNWSKLPLTRSHNNFVAILDLPEGEHQYKFFVDGQWTHDPSEPIVTSQLGTVNNIIQVKKTDFEVFDALMVDSQKCSDVSELSSSPPGPYHQEPYVCKPEERFRAPPILPPHLLQVILNKDTGISCDPALLPEPNHVMLNHLYALSIKDGVMVLSATHRYKKKYVTTLLYKPI”, the “soluble on expression in E. coli” value is reported as “soluble”. In the case of “MNAVAPLIPCIVSGGSGTRLWPVSRESMPKPFMRLADDQSLLQKTFLRIAGLPDVARLLTVTNRDLLFRTLDDYRAVNRSGLAQDLLLEPVGRNTAPAIAAAALHVQEHFGDQAQLLILPADHLIRDEQAFAAAVAEARGLAAQGYLVTFGITPERAETGFGYIEQGAPLGNGFRVARFVEKPDQATAQSYLDSGKYLWNAGMFCFQAATVLQELERHAPEVLIAARAALADGSSLENGQCRQRELAAGAFAEAPDISVDYALMERSDKVAVVPCSIGWSDIGSWQALRELSAADENGNQVRGESVLHDVSNCYIDSPKRLVGAVGVHDLIIVDTPDALLVADAARSQDVKFVAQELKRRGHDAFRLHRTVSRPWGTYTVLEEGRRFKIKRIVVRPKASLSLQMHHHRSEHWIVVSGMALVENGEREFLLNTNESTFIPAGHSHRLSNPGIIDLVMIEVQSGEYLGEDDIVRFNDIYGRAPASDEKK”, the “soluble on expression in E. coli” value is reported as “not soluble”. For “MKLLALVALCAVGVASHRDKRQLSIGTISVSGAGGSTGCVVTGNVLYANGIRLRNLTSSEQSELATYQTEVEQYKTQLRNILSQRRENLRNRLMSQGRNQQQQSNDVSSQGGNDDGSIPKAPEKPSFCTAEDTTQYYFDGCMVQGNKVYVGGQYARDLSSDEISELQTFDTQQTAYQNAVQSQMQSQVQGLFGGSDFLSALFGGDRFNQQQQRQQPSSTTPASTSSTTLPPKPTVPQFCTAIF”, the “soluble on expression in E. coli” value was “not soluble”. In the case of “MNLLVIGGHERMEKDYMVMAKKKGYKTKVYTTMSSKLNNSIGRPDAVVILTSTVSHKMSRTVESQAKKQDILIVRHKNSLEHHHHHH”, the “soluble on expression in E. coli” value is reported as “soluble”. For “MSLLNSVSAIFLATAMTFAALPQDAQAQDYRFNTVQVDGNQRIETSTIISRMGIERGKTISAGALNDAYQRLLDSGVFETVELIPRGNTLVVKVVEHPTINRINFEGNRRVKDETLEGAIGSQSRRVFTPEQAERDAATIAEIYSTQGRVAATVVPRIIRRSDNRVDLVFEISEGDTIEIERVSFVGNRVFSDRRLRRILETKQAGFLRTFIRSDTFIADRIEFDKQVLRDFYLSRGHVDFRVNSANVEFTRERDAFFLVMDVTEGQQFSFGKITTVSEIPGVEAPAYQDVLKIKPGVVYSPSLVENSIARMERLGLKNGVDFLRVEPRITRNDRDLTLDIEFALVKGPRIFVERIDIEGNTTTLDQVIRRQFRTVEGDPFNPREIRESAERIRALGFFGDANVETREGSTPAQVIVDVDVEEKPTGSLSFGGSYSVSDGFGVAIGLTEDNWLGRGQRLGLTLSTAQDAEQYVLSFTEPQLLGRDLRFDIDLGVANTNSSFASYDTERAFFAPGITFRLGELSTLQLRYRWEASEMVQRTATTVSGAVIASEIAQGKKSSSALGLTYTYDSRIGGLNPNAGVLFEVGVDAAGLGGDNEYFKTSAKAIAQTRVWHEEITLRASLDVGAFTWQGSGFSRAIDRFVIGPNTFRGFEPAGVGPRDQSNGVDDAIGGNYYAVARFEAEFPLGLPEELGLRGGLFYDVGNVWDVSDVNTAGGTIVGADGSFRHVIGFSLLWTTAFGPLRFNFSKALKKETFDKEQSFDLTIQAREGHHHHHH”, the “soluble on expression in E. coli” value was “not soluble”. With “MNYLESEISALYASAHELCYLGMDGRPIYSDQFTRLNRDVFSQANALYDKRGNSHEEEARLCLSLLMGYNATLYNNGDKEERIQHILDRCWDVLEHLPASLLKVQLLVYCYGEVFDEELAREAQAIIDTWQDRKLSEEEREVVERLKDVQENPYPWSEVE” the “soluble on expression in E. coli” value was “not soluble”. For “MNNNEIYVSLDIGTSNVRIIIGEITDGSINIIGVGNAPSEGIKKGSIVDIDETVRSIRRAVEQAERMVGLSIRQVIVGVNGNHVQLQPCHGVVAVSSPDREIGDEDIARVIDAAQVVSIPPEREIIDVIPKQFIVDGLDEINDPRGMIGVRLEMEGTIITGSKTLLHNLLRCVERAGLEVADICLQALAAGSVAISKDEKSLGVCLIDIGGGSMTISCFEQGSLVDTSVIPVGGDHVTNDIAVGLRISTEEAIKIKHTHGHAYIDEASEEDRFEVKAIGSTEPEAFSQFELAHIIEPRMEEMFELINRELRRLGQHDFPGGFVLTGGSVMMPGVLELAKETLGRNVRVAIPDYIGVREPQYTTGVGLIQFAYKNVKIQGKEVAAAVAEAGVEQEQRPKKEKERSRTNEGPGVKSKVKNWFKVFLE”, the “soluble on expression in E. coli” value was “not soluble”. With “MGSDKIHHHHHHAHELEANEKYPGKSVKAQTRKEIVTFFSESLSGKTTTFDAGKPLKLSEVEHYRDVVWQLWKEANDGFKEEKLIALDTLSSASTGYWKLPDSLEPNAVMPYYWGMKGTDEIGNELPLFLYLHGSGPKEREWSTGLNICRNFDDAPSVYFIPQIPNEGEYYRWWQKAKQFAWEKLLRQSLLLGKIDPNRVYVFGISEGGYGSQRLASFYADYWAAAGPMAGGEPLKNAPAENCSNIAFSLRTGDKDTGFYRNTLTGYVREAFDSLAHQHPGYFTHKIELIPGMGHSIDYRPTTPWLKQYVRNPYPKYVSWENFEMDGLYRKGFYNLYVKERSDEEGKSRTYYEMSISGNHISLKVDDVVYEATEKDQRWGIEMKFAKKYAQAHKGKVVIYLCDELVDLTEKVTLTVNGKKVFEGKVKADLKNMVNSCAVFFDPQRLYPAAIEVELK” the “soluble on expression in E. coli” value was “not soluble”.
